Laboratory results from paper PMC5740162, “Cryo-EM structure of a licensed DNA replication origin” (Nature Communications, 2017).

Key:
Mcm3 = molecular target: T1, Mcm3 (budding yeast, UniProt P24279 1-971); assay: cryo-EM structure; MCM loaded on bead-immobilised biotinylated 2.8 kb ARS1 DNA with ORC, Cdc6, ATP; with or without DDK; high-salt wash (0.3 M KCl); DNA released by MseI in EM buffer (25 mM Hepes 7.6, 5 mM Mg-acetate, 250 mM K-glutamate); lacey carbon grids, Titan Krios/K2; settings: both partners purified
T1 construct: Mcm3, subunit of the yeast Mcm2-7 helicase; Subunit as it stands in the loaded, unmodified MCM double hexamer; The complex was purified on calmodulin resin
T1 sequence (P24279 whole entry): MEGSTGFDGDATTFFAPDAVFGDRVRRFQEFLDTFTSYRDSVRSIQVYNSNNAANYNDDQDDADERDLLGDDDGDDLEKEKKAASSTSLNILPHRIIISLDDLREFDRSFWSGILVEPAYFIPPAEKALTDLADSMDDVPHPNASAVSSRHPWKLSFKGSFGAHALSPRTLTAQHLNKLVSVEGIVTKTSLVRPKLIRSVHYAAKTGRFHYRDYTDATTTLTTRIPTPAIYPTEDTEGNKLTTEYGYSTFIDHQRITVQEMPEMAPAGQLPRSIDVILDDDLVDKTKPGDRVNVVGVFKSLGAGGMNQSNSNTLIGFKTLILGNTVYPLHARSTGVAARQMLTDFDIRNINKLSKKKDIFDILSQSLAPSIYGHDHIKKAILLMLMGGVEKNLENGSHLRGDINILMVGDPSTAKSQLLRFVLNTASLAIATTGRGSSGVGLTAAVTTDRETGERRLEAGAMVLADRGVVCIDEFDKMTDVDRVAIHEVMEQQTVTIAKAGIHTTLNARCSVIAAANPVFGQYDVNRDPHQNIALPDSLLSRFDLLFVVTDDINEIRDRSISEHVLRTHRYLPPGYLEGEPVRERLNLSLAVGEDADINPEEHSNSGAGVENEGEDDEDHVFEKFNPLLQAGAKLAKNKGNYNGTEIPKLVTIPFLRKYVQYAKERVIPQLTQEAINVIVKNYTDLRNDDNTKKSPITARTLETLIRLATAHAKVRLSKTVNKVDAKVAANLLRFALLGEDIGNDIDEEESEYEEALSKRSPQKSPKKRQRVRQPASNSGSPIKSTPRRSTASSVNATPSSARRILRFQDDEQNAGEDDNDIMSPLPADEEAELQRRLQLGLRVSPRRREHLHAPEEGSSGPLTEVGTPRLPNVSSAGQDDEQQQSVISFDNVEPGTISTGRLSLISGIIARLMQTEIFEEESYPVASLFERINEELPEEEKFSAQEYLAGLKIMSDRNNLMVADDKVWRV

Mcm4 = molecular target: T2, Mcm4 (budding yeast, UniProt P30665 1-933); assay: as above; settings: both partners purified
T2 construct: Mcm4, subunit of the yeast Mcm2-7 helicase; Subunit as it stands in the loaded, unmodified MCM double hexamer
T2 sequence: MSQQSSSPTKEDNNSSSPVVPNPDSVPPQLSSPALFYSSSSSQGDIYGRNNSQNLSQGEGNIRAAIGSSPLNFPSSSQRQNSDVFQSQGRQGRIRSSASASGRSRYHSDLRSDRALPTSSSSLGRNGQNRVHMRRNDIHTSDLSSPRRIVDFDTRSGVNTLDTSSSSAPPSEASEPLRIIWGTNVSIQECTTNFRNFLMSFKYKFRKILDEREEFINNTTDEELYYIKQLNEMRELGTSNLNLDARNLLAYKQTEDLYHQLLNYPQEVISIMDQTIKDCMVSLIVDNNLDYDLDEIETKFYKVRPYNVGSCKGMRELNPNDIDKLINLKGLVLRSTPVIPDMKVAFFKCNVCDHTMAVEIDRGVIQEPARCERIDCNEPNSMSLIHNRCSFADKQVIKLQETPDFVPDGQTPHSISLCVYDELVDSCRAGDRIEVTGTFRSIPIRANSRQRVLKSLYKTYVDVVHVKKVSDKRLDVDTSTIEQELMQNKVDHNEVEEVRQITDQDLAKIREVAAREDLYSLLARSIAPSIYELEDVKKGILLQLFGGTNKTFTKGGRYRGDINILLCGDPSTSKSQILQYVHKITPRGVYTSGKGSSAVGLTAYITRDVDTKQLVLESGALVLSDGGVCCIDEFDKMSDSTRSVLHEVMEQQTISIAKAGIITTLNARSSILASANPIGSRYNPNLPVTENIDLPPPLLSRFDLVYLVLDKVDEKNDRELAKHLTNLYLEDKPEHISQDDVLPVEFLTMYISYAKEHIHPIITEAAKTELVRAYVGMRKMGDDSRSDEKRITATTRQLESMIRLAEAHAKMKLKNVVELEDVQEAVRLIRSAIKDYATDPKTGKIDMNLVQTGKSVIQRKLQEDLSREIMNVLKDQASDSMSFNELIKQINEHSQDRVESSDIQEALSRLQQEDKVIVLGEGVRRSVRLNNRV

- binding result (Mcm3): binds
- binding result (Mcm4): binds
B1: Mcm7 (natural protein, budding yeast)
chain: MSAALPSIQLPVDYNNLFNEITDFLVTFKQDTLSSDATRNENEDENLDAENIEQHLLEKGPKYMAMLQKVANRELNSVIIDLDDILQYQNEKFLQGTQADDLVSAIQQNANHFTELFCRAIDNNMPLPTKEIDYKDDVLDVILNQRRLRNERMLSDRTNEIRSENLMDTTMDPPSSMNDALREVVEDETELFPPNLTRRYFLYFKPLSQNCARRYRKKAISSKPLSVRQIKGDFLGQLITVRGIITRVSDVKPAVEVIAYTCDQCGYEVFQEVNSRTFTPLSECTSEECSQNQTKGQLFMSTRASKFSAFQECKIQELSQQVPVGHIPRSLNIHVNGTLVRSLSPGDIVDVTGIFLPAPYTGFKALKAGLLTETYLEAQFVRQHKKKFASFSLTSDVEERVMELITSGDVYNRLAKSIAPEIYGNLDVKKALLLLLVGGVDKRVGDGMKIRGDINVCLMGDPGVAKSQLLKAICKISPRGVYTTGKGSSGVGLTAAVMKDPVTDEMILEGGALVLADNGICCIDEFDKMDESDRTAIHEVMEQQTISISKAGINTTLNARTSILAAANPLYGRYNPRLSPLDNINLPAALLSRFDILFLMLDIPSRDDDEKLAEHVTYVHMHNKQPDLDFTPVEPSKMREYIAYAKTKRPVMSEAVNDYVVQAYIRLRQDSKREMDSKFSFGQATPRTLLGIIRLSQALAKLRLADMVDIDDVEEALRLVRVSKESLYQETNKSKEDESPTTKIFTIIKKMLQETGKNTLSYENIVKTVRLRGFTMLQLSNCIQEYSYLNVWHLINEGNTLKFVDDGTMDTDQEDSLVSTPKLAPQTTASANVSAQDSDIDLQDA
notes: Mcm7, subunit of the yeast Mcm2-7 helicase; Subunit as it stands in the loaded, unmodified MCM double hexamer
